The record followed here is a protein production outcome set (Wang et al. 2014).

The data set can be described thus: label from the status in PepcDB records.
On to “MIDVLVQLKSEELILKQRVITAVVALIIFIPIVFLGGTLIEIAALALAVVAMSEVLIMKRILLVTPEAIISILGTLFLVAPKSWMHDLPSQINTPFVSLIFAIALMVRVVFSKNRFNFDDAGVLTLTMLYIGFGFNMFVQARTVGLGMLMYLLLTVWSTDSGAYLVGRKIGKTKLAPQISPNKTWEGSIGGTIVAVIVGIIFSVTGLIHYGILATILMTLFLSIAGQLGDLVESSLKRYYGVKDSGRILPGHGGILDRFDSLLLVLPMAYLLGLL”, for which the protein production result is given as “failed”.
As to “MIEEEAIVTQVEEHAIWVEKFRKSACGSCAGGCSTSLVARLLGGKPLRLRIATEARVAPGDRVIIGVEEGALLAGSFRMYLFPLFSLIGGALLGKLLAAQGLSATAEAGSIAGGLVGLGLTLVLLKYCPSLQRQNLHPVFIRRISR”, the protein production entry was “failed”.
Take “MIEIKQVKTQDEVNYTFVEKLMHTAFPQEERRDTVQQREYSDNNPRFCNNIILENGNSIGMISYWTMGDFYYIEHFAIDPSLRNGGYGKRVLEMIKKQLKGPIVLEVEEPNDEMSTRRIHFYKRLEFTLHKKPYIQPPYRKGDSGLPMLLMTYGDIDMESDFEKVKKTLYKEVYGQEI”: the protein production result is on record as “not failed”.
Consider “MIERILASLILCLMLGIPFGMMFSFTGDVVLNFTFFWPLFMSGLWITGGLYFWFHYERHWRWGDGVIPDEPTGRPLVSILIPCYNEGPNVRETIEAALAQRYTHIEVIAVNDGSNDDTGDELNRLAEQYDKLRVIHLAHNQGKALALQAACAAAKSDLLVCIDGDALLDPDAVAYLINPLINNPRVGAVTGNPRIRTRSTLIGRIQVGEFSSIIGLIKRTQRVHGKVFTVSGVIAAFRRSALAEVGYWSPDMITEDIDISWKLQLRHWTIFFEPRALCWILMPEKLSGLWKQRLRWAQGGAEVFLKNFRHLWSWRYRRMWPLFLEYSISILWAFTYAVSVLLYLLGFLIELPEEIRVETLFPPAFTGMMIGVVCLIQFAVSMLIERRYEKDIGKYLFWVIWYPMVYWTLSLFTSLVSFPKVMLRSRKKRARWESPDRGIERG”, for which the protein production entry is “failed”.
The same measure for “MIESMIIAGGMLVALLYMTACSDKLDVQQMYEFDLATLPVQTTIVKGEEAEIRCQLVRSGEYQDTKYFIRYFQPTGKGELRMENGTVLLPNDLYLLPEETFRLYYRSFGTDQQKIDIYILDSFGQVVQKSFAFNNLEHHHHHH”: “failed”; for “MIEVAEIIAREIRRGKIVEIGVGFYLEVAKRLRESGIDILVVDINEKAINYARKQGIKGVVDDIFNPTLGIYKDAKAIYSIRPAPEMMKPLLDLARKLKIPLYIVPLTGDRTPNGMKLINYKGIPIYKWEP”: “not failed”; for “MIEVLSVITSATVQDLGRWGYQRYGVPVSGVMDEVSARIANYLVGNPDNTPLIEFTAGGISIKFHTSAVFAVTGDATLYLNDTQLEPWESYWAKRGDVLTVRLSKGMYGYIAFSGGIECRKILGSCSTYLRAKFGGLLKPGDKLKLGYSLLTGKAGKRLPEELRPRFDKTVRVILGPNIEHFTPEGMRTFLTSEYTVTPESDRMGYRLEGPRIEHSEKGADIITEPIPRGAIQVPANGKPIIMLADAQTTGGYAKIATVIRVDIPMVVQTRPGEKLRFKAVSVNEAVQELRKRERI”: “not failed”.
With “MIEVVCNDRLGKKVRVKCNTDDTIGDLKKLIAAQTGTRWNKIVLKKWYTIFKDHVSLGDYEIHDGMNLELYYQ”, the protein production entry is “not failed”.
The same measure for “MIFASDLDQTLIYSRKSFRAHIEDNSIQLIETLDGKEISFITYKTITLLIKLQLHSYFIPVTTRTIEQFQRITLFQNEIIPEYAITSNGGNILHNGKQDVTWNKEIKKRISVECIERNDILKEFEQIAHKDWVISQKTADDLFHYCIIKRENIPYDELSSFTSWLDKQGWNHSLQGRKLYFVPKPINKWDAVQYIQEILQMDTIITAGDSLLDLCMLEKANYAFAPLHGELGATYNHLQPHIVKTDAIGIYAAEEIVSKSLQIIHSSSPTS”: “failed”.
As for “MIFDTEPDAMTLAPDDKPQDRHFDWSGVPIDLGGMEPLEQIARLLCHALVAPAAALTITEGGRLRVLAARGISSSHVEQAMELCKQVPPAPNGVTELIEHATLAQIKLGDAAFPGLPARFIACVPVGAPQTGISGTLCVIDTRERRLASQEHQQLLMFANVAAAQLELQFGAGRREPHSGLLNTRQLQSDLDALAFGSHSVPTIAAFIEVYDTQAANEARQALGMQPLEELVRHASYVLTRALRGKATVYHVASMRFAFFLLNSAPDEMEDLLLDLRDMLHKPVDAAGVPMSLTFHAGVVRFAPQQPDTNDVMRKGLVALGDAINNHAIVCWYSASHDDAIQRSYRLALDAEQALDAGDFRLVFQPRIDLEDLSVTGFEALLRWNHASMGPIGPDEFIPLFEKTALMCTVTNWVIESALVQLAKWRAQGLDFSMSINLSSRDFGNINLAADVINRCKDLAIPTTCIELEITEGRWLRSNVEAVPRLRALRDAGVSVAIDDFGTGYSNFGYLTELPVNVLKLDRSLVTGIATKTGMQMRAEAVVRLANALGYRTVAEGIEHADEIALLRSWGCDEAQGYLLAKPMEAHLVADYVKQTAALRRLP”, the protein production entry is “failed”.
In the case of “MIFIESITNSVPWVNSLALTLNSPLLATTNEAENAPIVLTGVLLTLVVIYLASKIGGELSRLVDLPPVLGELVAGVLVGASALHLVVFPESGAVAGDSVIMTILQFINNLTPDAVTAIFQSQSEAVSVLAELGVIILLFEIGLESDLKELQKVGYQATIVACVGVAVPFTAGTVGLISIFHAPVIPAIFAGAALTATSIGITSKVLSELGQLKSREGQIIVGAAVIDDILGIIVLAVVASLAKTGEVDVLNVIYLIVSATVFLIGSILLGKYFNQSFVAIANKLQTRGNLIIPAFIFAFFMAFLGNAIHLEAILGAFAAGLVLDETDKRKELDEQVKPIADILVPIFFVTVGAKVDLSVLNPVVPGNREGLIIATFLIVVAIIGKIVTGWAVFGQPGINRLAVGVGMIPRGEVGLVFAGIGSASGALDKPLQAAIIIMVILTTFLAPPLLRFAFKQSEEIKELEKADLLG”, the protein production entry is listed as “failed”.
For the sequence “MIFLIFSFIVLLIFGLANVYIYKRLIKKITLFKYFYKIFSFIFIVLFLAQAVFLIFRRDEYLSDTWYEILAMFYAPTYCLFFMTLAWDFVKLILALMGKRDKTYNLILRLIFELSLIVLSVFLIYVSINNALKTPEVKSVDVEIPNLKKDLKIVMLTDIHLGKNLHENFLDKLITKVNLQSPDMVVIVGDLIDTNPKDLKNYISKLNDFNSTYGTFYALGNHEYYHGINEVLDLLRKHTNMKILVNQNLDLGFINIAGLGDLAGLDRGLYAPDLARIKVDLNTSKASILLTHQPKTALLYDLSDFDLVLSGHTHGGQIFPFMFLVKLQQGFVHGLYDLGEKTKLYVSSGAGFWGPSLRVFAPSEIVILNLKGKK”, the protein production result is listed as “failed”.
With “MIFMNMVNRERELQALKKRLSSNDLELIIIYGRRRIGKTFLIINAVNGYDFIYYLATEKNNLRKFKELTESKYEDIKYVKEDWEAIFHYLRDKIIIIDEFPYMIKEDESILSTFQKIVDETLKGSKTKLILLGSSISMMEDAISYKSPLYGRRTASIELKELKFKDLKGFNFSLIDAIHVYGFAGGVPFYLTKAKTPFLKWINAELKEVDSFIKDEIDFMLRYEFSEIGTYKEILHAISSGKNTLGEIKDFVRISGDVSSYLNKLEKIGIIGKEFPYKMKKGARYYIKDNFTLFWFTFIYPNLSLIEEGIYEIKEDEYNVYLGRIFEKIAREYVEDVYKVKVERLWFKDVEIDIYGDGIAGECKWSEGINGEKVLYELKRKVEDLGLDVKKYIIFAKSFSKTNEEAEFIDLKKLEQWYRTLEHHHHHH”, the protein production entry was “not failed”.
As for “MIFMRTEDVRRDIPLLRDHVYLDAASTTPTPLPVVRAMTEYFKEYNANTGRGAYSLVLRATRKLQEAREKVAGFINASSDEIVFTKNTSEAINIVAGGLRFRKGDSVVVPNIEHHSNFLPWLRLRERGVDVRVVKADEGGVVDPGRIEDAVDETTRLVTVTHISNALGTVQDVKEIGRIAHDVGALYLVDAAQSIGHMEVDVRAIGADFAAFPGHKGTLGPVGTGFLYCSTDVQGELEPLMLGGGTVLDVSEDGYVLEDFPAKFEAGTLNIAGFIGLGASIDYMNRIGIRRIQKHGMKMTEELHATVSSIDGIECYGDPQNIYGILSFNINNMDPHDVAKILDETAGICVRSGHHCAIPAMKHLALHETGGTVRASIHYYNTSEEIQLLGETLEEIAGMG”, the protein production entry is “failed”.
For “MIFVLLICPLFIFIVSVIGTRKTKTYYVMPIVTFASFLIIGVIAFTPKFFFWVGMYSIFSFIVSYMTLLFVKGYEVAENAK”, the protein production entry was “failed”.
Regarding “MIGAILAGGYGKRLKPITDSIPKALVEIKDNYTIMDRQLFDFSIMGIEAVYILSGYLGNKIEERYGSRYRDMNIYYLREEKPLGTLYSLRNLIDEVKDDDIVLRNGDTVTDVNFLNFLKKAQDQKYYITMYVTRMKSPFGIVETFGDQIVQFREKPELNHYINAGLYYIKSDAFPYFFEKYIDRDLETTVFPRMAREGLIGSYTEEAMWIGIDSEKDLERIRADYRNREDYPWGYLKVLYDDDRSRLLEYAIKAGSDTEIDCGDGCILRIQSGLGTFGDSSDEKFRNGDVRSISGKVRVNAFENTRLELIISKKLEHHHHHH”, the protein production entry is recorded as “failed”.
As for “MIGDYERFKQLKKKVAEALNISEEELDRMIDKKIEENGGIILKDAALMMIAKEHGVYGEEKNDEEFLISDIEEGQIGVEITGVITDISEIKTFKRRDGSLGKYKRITIADKSGTIRMTLWDDLAELDVKVGDVIKIERARARKWRNNLELSSTSETKIKKLENYEGELPEIKDTYNIGELSPGMTATFEGEVISALPIKEFKRADGSIGKLKSFIVRDETGSIRVTLWDNLTDIDVGRGDYVRVRGYIREGYYGGLECTANYVEILKKGEKIESEEVNIEDLTKYEDGELVSVKGRVIAISNKKSVDLDGEIAKVQDIILDNGTGRVRVSFWRGKTALLENIKEGDLVRITNCRVKTFYDREGNKRTDLVATLETEVIKDENIEAPEYELKYCKIEDIYNRDVDWNDINLIAQVVEDYGVNEIEFEDKVRKVRNLLLEDGTGRIRLSLWDDLAEIEIKEGDIVEILHAYAKERGDYIDLVIGKYGRIIINPEGVEIKTNRKFIADIEDGETVEVRGAVVKILSDTLFLYLCPNCRKRVVEIDGIYNCPICGDVEPEEILRLNFVVDDGTGTLLCRAYDRRVEKMLKMNREELKNLTIEMVEDEILGEEFVLYGNVRVENDELIMVVRRVNDVDVEKEIRILEEME”, the protein production result is given as “failed”.
“MIGKRFFQTTSKKIAFAFDIDGVLFRGKKPIAGASDALKLLNRNKIPYILLTNGGGFSERARTEFISSKLDVDVSPLQIIQSHTPYKSLVNKYSRILAVGTPSVRGVAEGYGFQDVVHQTDIVRYNRDIAPFSGLSDEQVMEYSRDIPDLTTKKFDAVLVFNDPHDWAADIQIISDAINSENGMLNTLRNEKSGKPSIPIYFSNQDLLWANPYKLNRFGQGAFRLLVRRLYLELNGEPLQDYTLGKPTKLTYDFAHHVLIDWEKRLSGKIGQSVKQKLPLLGTKPSTSPFHAVFMVGDNPASDIIGAQNYGWNSCLVKTGVYNEGDDLKECKPTLIVNDVFDAVTKTLEKYA”: the protein production result is listed as “not failed”.
The same measure for “MIGLNTAAIYILQTLGSLYLLIVLLRFILQLVRADFYNPLSQFIVRATKPLLNPLRRIIPGFGGIDLASLVLAILIQLVLMILILMLMGYGVGGFIMQLLIWSIIAVTSLFLKVFFFALIISVILSWVAPGSYNPGAQLVNQICEPLLMPFRKLLPNLGGLDLSPIFAFLALKLIDMLVINNLAAMTGMPQQLSIFL”: “failed”.
The same measure for “MIGLNTAAIYVLQTLGSLYLLIILLRFVLQLVRANFYNPLCQFIVRATQPLLKPLRRIIPSLFGLDMSSLVLAIIVQMILMALTLLLMFGTTGDPLHLLLWSIIGVTALFLKIFFFALIISVILSWVAPGSHNPGAELVNQICEPALAPFRKIVPNLGGLDISPILAFLVLKLLDMLVINNLAAMSNMPDVLRLLM”: “failed”.
